Experiments:
[1] = biological target: T1, human IL12Rβ1, cell-expressed (human, UniProt P42701 24-662); test: cell-based or functional assay
[2] = biological target: T2, human CD4, cell-expressed (human, UniProt P01730 26-458); test: flow cytometry on MOLM-13 cells (CD4, no IL12R or IL23R), lower left panel
T2 construct: whole, on cells

[3] = biological target: T3, human IL12Rβ1 extracellular domain Fc-fusion (human, UniProt P42701 24-545); test: SPR Biacore T100, captured IL12Rβ1-Fc
T3 construct: extracellular domain; bought; also called IL12Rβ1-Fc; hIL-12Rβ1-Fc; not shown: Fc part, captured by anti-hIgG

[4] = biological target: T3, human IL12Rβ1 extracellular domain …; test: competition ELISA, coated IL-12 + IL12Rβ1-Fc
[5] = biological target: T3, human IL12Rβ1 extracellular domain …; test: competition ELISA, coated IL-23 + IL12Rβ1-Fc
[6] = biological target: T1, human IL12Rβ1, cell-expressed; test: cell-based or functional assay; remark: listed apart in the source
[7] = biological target: T1, human IL12Rβ1, cell-expressed; test: FACS, activated human T cells
[8] = biological target: T3, human IL12Rβ1 extracellular domain …; test: competition ELISA, coated IL-12 + 2 nM IL12Rβ1-Fc
[9] = biological target: T3, human IL12Rβ1 extracellular domain …; test: competition ELISA, coated IL-23 + 2 nM IL12Rβ1-Fc
[10] = biological target: T4, CXCR4 and CD4 co-expressed on cells (MOLM-13, THP-1, MT-4, PBMC; Jurkat CD4 low) (human, UniProt P61073 1-352; P01730 26-458); test: cell-based or functional assay
T4 sequence (P61073 whole entry, chain 1 of 2, other chains not shown): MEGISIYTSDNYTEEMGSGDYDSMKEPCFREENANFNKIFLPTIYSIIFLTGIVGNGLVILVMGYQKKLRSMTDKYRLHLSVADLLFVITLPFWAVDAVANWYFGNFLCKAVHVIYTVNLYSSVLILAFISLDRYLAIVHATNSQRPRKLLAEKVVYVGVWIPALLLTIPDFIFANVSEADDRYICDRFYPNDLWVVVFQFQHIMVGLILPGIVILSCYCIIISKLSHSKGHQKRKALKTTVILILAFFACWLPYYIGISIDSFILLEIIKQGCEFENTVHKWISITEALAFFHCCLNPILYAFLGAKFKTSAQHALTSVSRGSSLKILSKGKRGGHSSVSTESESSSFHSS

[11] = biological target: T4, CXCR4 and CD4 co-expressed on cells …; test: cell-based or functional assay; remark: listed apart in the source
[12] = biological target: T4, CXCR4 and CD4 co-expressed on cells …; test: FACS, Jurkat E6-1 cells (CXCR4+/CD4 low)
[13] = biological target: T4, CXCR4 and CD4 co-expressed on cells …; test: FACS, THP-1 cells
[14] = biological target: human CXCR4 (on cells, viral lipoparticles or membrane extracts) (human, UniProt P61073 1-352); test: cell-based or functional assay
Chain of human CXCR4 (on cells, viral lipoparticles or membrane extracts) (P61073 whole entry): as the sequence (P61073 whole entry, chain 1 of 2, other chains not shown) above

[15] = biological target: T4, CXCR4 and CD4 co-expressed on cells …; test: cell-based or functional assay; remark: listed apart in the source
[16] = biological target: T4, CXCR4 and CD4 co-expressed on cells …; test: FACS, MOLM-13 cells (CXCR4+/CD4+)
[17] = biological target: T4, CXCR4 and CD4 co-expressed on cells …; test: cell-based or functional assay; remark: listed apart in the source

B1: IL12Rb1#30: 148C09 (VHH)
VHH: EVQLVESGGGLVQTGGSLRLSCAASGRTPRLVAMGWFRQTPGKEREFVGEIILSKGFTYYADSVKGRFTISRVNAKNTITMYLQMNSLKSEDTAVYYCAGRQNWSGSPARTNEYEYWGQGTLVTVSS
notes: also called IL12Rβ1#30; LG148C09
- IC50, IL-12 induced IFNγ release, PBMC D840 [1]: 17 nM
- IC50, IL-12 induced IFNγ release, T cells D839 [1]: 140 nM
- binding result [2]: no binding (tested: 1E-6 M)
- Kd [3]: 3.3 nM
- koff [3]: 0.0015 s⁻¹
- kon [3]: 450000 M⁻¹ s⁻¹
- IC50 [4]: 3.7 nM
- IC50 [5]: 1.5 nM
- IC50, IL-17 release, PBMC D840 [6]: 35.5 nM
- EC50 [7]: 1.3 nM
- IC50 [8]: 3.7 nM
- IC50 [9]: 1.5 nM

B2: 281F12-35GS-03F11 (bispecific antibody)
chain: EVQLVESGGGLVQAGDSLRLSCAASGRAFSRYAMGWFRQAPGKEREFVAAIGWGPSKTNYADSVKGRFTISRDNAKNTVYLQMNTLKPEDTAVYSCAAKFVNTDSTWSRSEMYTYWGQGTQVTVSSGGGGSGGGGSGGGGSGGGGSGGGGSGGGGSGGGGSEVQLVESGGGSVQPGGSLTLSCGTSGRTFNVMGWFRQAPGKEREFVAAVRWSSTGIYYTQYADSVKSRFTISRDNAKNTVYLEMNSLKPEDTAVYYCAADTYNSNPARWDGYDFRGQGTQVTVSS
notes: also called CXCR4#2-35GS-CD4#8; CXCR4#2-CD4#8
- IC50, HIV-1 HE, MT-4 [10]: 0.0906 nM
- IC50, HIV-1 NL4.3, MT-4 [10]: 0.187 nM
- IC50, HIV-2 ROD, MT-4 [10]: 0.3 nM
- IC50, HIV-1 BaL (R5), PBMC [11]: 2.46 nM
- IC50, HIV-1 NL4.3 (X4), MT-4 [11]: 0.24 nM
- IC50, HIV-1 NL4.3 (X4), PBMC [11]: 0.37 nM
- IC50, HIV-1 NL4.3 (X4), U87 [11]: 2.67 nM
- EC50 [12]: 11 nM
- EC50 [13]: 0.67 nM
- Fold increase vs CXCR4#2, Jurkat E6-1 [14]: 0.8 fold
- Fold increase vs CXCR4#2, MOLM-13 [14]: 146 fold
- IC50, SDF-1 chemotaxis, Jurkat E6-1 [14]: 110 nM
- IC50, SDF-1 chemotaxis, MOLM-13 [14]: 0.59 nM
- enhancement vs monovalent CD4#8, HIV-1 BaL, PBMC [15]: ~200 fold
- EC50 [16]: 1.1 nM
- IC50, HIV-1 NL4.3 wt, MT-4 [17]: 0.187 nM
- IC50, NL4.3 2G12 res., MT-4 [17]: 0.11 nM
- IC50, NL4.3 AMD-3100 res., MT-4 [17]: 1.13 nM
- IC50, NL4.3 CD4#8 res., MT-4 [17]: 0.31 nM
- IC50, NL4.3 CXCL-12res., MT-4 [17]: 0.433 nM
- IC50, NL4.3 CXCR4#2 res, MT-4 [17]: 1.4 nM

From patent publication US20160251440A1 (Ablynx, published 2016)
